Assays:
[1] = system: NC[C@H]1O[C@H](O[C@H]2[C@H](O)[C@@H](O[C@H]3O[C@H](CO)[C@@H](O)[C@H](N)[C@H]3O)[C@H](N)C[C@@H]2N)[C@H](O)[C@@H](O)[C@@H]1O; assay: purified protein
[2] = target: the molecule itself; assay: SEC; untreated protein, 100 ug, Superose 6 Increase 10/300 GL, 10 mM Tris-Cl pH 8.0, 150 mM NaCl, 1 mM EDTA, 0.5 mM beta-ME, 25°C, 0.5 ml/min; calibrated with molecular weight markers
[3] = target: the molecule itself; assay: SDS-PAGE of unboiled sample; 10 ug unboiled protein on 8% SDS-PAGE, loading dye with 1% SDS, 0.125 M Tris pH 6.8, 40% glycerol; Coomassie stain
[4] = fixed acetyl-CoA (500 μM in the standard assay), 2 mM DTNB, 0.5 μM enzyme, 20 mM phosphate pH 8.0, 25°C

For “RvEis (Mycobacterium tuberculosis H37Rv)”, the Km ([1]; pH 8.0, 25.0 °C) was 11 ± 1.6 µM, the Vmax ([1]; pH 8.0, 25.0 °C) was 4 µM/min and the kcat/Km ([1]; pH 8.0, 25.0 °C) was 2140 M⁻¹ s⁻¹.

For “MsEis (Mycolicibacterium smegmatis MC2 155)”, the Km [1, 4] was 21 ± 0.1 µM, the Vmax [1, 4] was 4.8 µM/min and the kcat [1, 4] was 0.027 ± 0.005 s⁻¹. It also gave a kcat/Km [1, 4] of 1270 ± 22 M⁻¹ s⁻¹.

B1: M. smegmatis Eis (MSMEG_3513) protein (enzyme, UniProt A0QY29 1-402, looked up)
chain: MITPRTLHTITDDDWTRIALLARFAFGDIEPEQTQAAWRSMVPEDATVVVPDETDDAFVGQSLYLDMQLTVPGGEVLPVAGISFVAVAPTHRRRGVLRAMYTELHDRIARAGYPLAVLTASEGGIYGRFGYGVATIEQHVSVDRRLAQFHPAAPDPGGVRMLVPADHRDGLADIYDRWRRRTPGGLVRPDALWDDLLADRPESRRGGGELFAFGHQDGYALYRVDRGPDGRRSAHVVELTAVTADAHAALWRALLGLDLIDRVSIGTHPHDPLPYLLTDPRQAQVTASADDLWIRIMNVPAALEARRYQADLDVVLDVADGFRSDGGRFALQISGGRARCTTTDAPADIEIDLDVLGGLYLGAHRVDGFAAANRLRSKDSELLQQFGAAFAGDMPAELGYGF
notes: also called MsEis; Enhanced Intracellular Survival protein from M. smegmatis
In the case of B1, the “stoichiometry N” value [2] is reported as 6.

B2: M. tuberculosis Eis (Rv2416c, Enhanced Intracellular Survival protein) (enzyme)
chain: MTVTLCSPTEDDWPGMFLLAAASFTDFIGPESATAWRTLVPTDGAVVVRDGAGPGSEVVGMALYMDLRLTVPGEVVLPTAGLSFVAVAPTHRRRGLLRAMCAELHRRIADSGYPVAALHASEGGIYGRFGYGPATTLHELTVDRRFARFHADAPGGGLGGSSVRLVRPTEHRGEFEAIYERWRQQVPGGLLRPQVLWDELLAECKAAPGGDRESFALLHPDGYALYRVDRTDLKLARVSELRAVTADAHCALWRALIGLDSMERISIITHPQDPLPHLLTDTRLARTTWRQDGLWLRIMNVPAALEARGYAHEVGEFSTVLEVSDGGRFALKIGDGRARCTPTDAAAEIEMDRDVLGSLYLGAHRASTLAAANRLRTKDSQLLRRLDAAFASDVPVQTAFEF
notes: also called RvEis; not shown: His tag, N-terminal, kept
In the case of B2, the “stoichiometry N” value [3] is reported as 3 and the “stoichiometry N” value [2] is reported as 6.
